# Results taken from US20110172153A1 (GENERAL HOSPITAL, published 2011).
# Square brackets hold non-standard residues; d marks the D form. Ends that are not written are not given here. hArg = N=C(N)NCCCC[C@H](N)C(=O)O; Aib = CC(C)(N)C(=O)O
# T1: human parathyroid hormone receptor (PTHR) (human, UniProt Q03431 27-593)
# T1 construct: Assayed in membranes of HKRK-B7 cells or of transiently transfected COS-7 cells, or on intact HKRK-B7/HKRK-B64/COS-7 cells; RG = co-transfected with negative-dominant Galpha-s; R0 = receptor alone plus GTPgammaS; also called hPTHR; human PTH receptor
# T1 sequence: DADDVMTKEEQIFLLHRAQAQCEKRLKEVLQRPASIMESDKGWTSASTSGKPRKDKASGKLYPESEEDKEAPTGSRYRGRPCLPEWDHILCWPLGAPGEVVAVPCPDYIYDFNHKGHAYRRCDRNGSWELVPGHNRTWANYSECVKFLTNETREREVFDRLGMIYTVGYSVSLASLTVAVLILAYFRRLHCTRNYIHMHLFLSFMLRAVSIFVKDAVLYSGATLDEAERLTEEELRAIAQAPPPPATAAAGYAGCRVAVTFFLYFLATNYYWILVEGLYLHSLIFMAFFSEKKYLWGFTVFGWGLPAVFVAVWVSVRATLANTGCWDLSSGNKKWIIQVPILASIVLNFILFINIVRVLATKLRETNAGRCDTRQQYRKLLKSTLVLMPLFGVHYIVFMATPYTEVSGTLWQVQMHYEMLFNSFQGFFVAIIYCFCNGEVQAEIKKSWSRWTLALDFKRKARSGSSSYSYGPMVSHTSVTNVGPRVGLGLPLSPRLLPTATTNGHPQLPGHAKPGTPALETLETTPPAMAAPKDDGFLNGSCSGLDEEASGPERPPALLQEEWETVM
# T2: rat parathyroid hormone receptor (PTHR) (rat, UniProt P25961 27-591)
# T2 sequence: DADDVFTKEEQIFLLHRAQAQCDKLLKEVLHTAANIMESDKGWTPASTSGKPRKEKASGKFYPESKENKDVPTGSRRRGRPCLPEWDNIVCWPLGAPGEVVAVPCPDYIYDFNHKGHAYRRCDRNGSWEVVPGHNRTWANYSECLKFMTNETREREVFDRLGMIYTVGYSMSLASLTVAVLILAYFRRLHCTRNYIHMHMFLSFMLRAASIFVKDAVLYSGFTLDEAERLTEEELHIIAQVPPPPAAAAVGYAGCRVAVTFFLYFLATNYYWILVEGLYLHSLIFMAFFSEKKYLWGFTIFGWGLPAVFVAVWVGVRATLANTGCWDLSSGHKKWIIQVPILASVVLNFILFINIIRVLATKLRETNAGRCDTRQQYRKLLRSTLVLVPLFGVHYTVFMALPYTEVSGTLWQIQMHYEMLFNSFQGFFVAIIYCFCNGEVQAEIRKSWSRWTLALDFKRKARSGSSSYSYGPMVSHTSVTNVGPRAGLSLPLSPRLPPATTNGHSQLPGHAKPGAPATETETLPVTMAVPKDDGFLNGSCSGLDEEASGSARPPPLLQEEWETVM
# B1: A18,22,L25,K26-PTHrP(1-30)NH (peptide)
# peptide: AVSEHQLLHDKGKSIQDARRRAFLLKLIAE-NH2
# B2: E18,A22,L25,K26-PTHrP(1-28)NH (peptide)
# peptide: AVSEHQLLHDKGKSIQDERRRAFLLKLI-NH2
# notes: also called EALK-PTHrP(1-28)
# B3: E18,S22,L25,K26-PTHrP(1-28)NH (peptide)
# peptide: AVSEHQLLHDKGKSIQDERRRSFLLKLI-NH2
# B4: A18,S22,L25,K26-PTHrP(1-28)NH (peptide)
# peptide: AVSEHQLLHDKGKSIQDARRRSFLLKLI-NH2
# B5: A18,22,26-PTHrP(1-28)NH (peptide)
# peptide: AVSEHQLLHDKGKSIQDARRRAFLHALI-NH2
# B6: E18,L22,K26-PTHrP(1-28)NH (peptide)
# peptide: AVSEHQLLHDKGKSIQDERRRLFLHKLI-NH2
# B7: E18,L22,A26-PTHrP(1-28)NH (peptide)
# peptide: AVSEHQLLHDKGKSIQDERRRLFLHALI-NH2
# B8: E18,K22,26-PTHrP(1-28)NH (peptide)
# peptide: AVSEHQLLHDKGKSIQDERRRKFLHKLI-NH2
# B9: A18,W22,K26-PTHrP(1-28)NH (peptide)
# peptide: AVSEHQLLHDKGKSIQDARRRWFLHKLI-NH2
# B10: E18,K22,A26-PTHrP(1-28)NH (peptide)
# peptide: AVSEHQLLHDKGKSIQDERRRKFLHALI-NH2
# B11: A18,N22,K26-PTHrP(1-28)NH (peptide)
# peptide: AVSEHQLLHDKGKSIQDARRRNFLHKLI-NH2
# B12: A18,26,S22-PTHrP(1-28)NH (peptide)
# peptide: AVSEHQLLHDKGKSIQDARRRSFLHALI-NH2
# B13: E18,N22,A26-PTHrP(1-28)NH (peptide)
# peptide: AVSEHQLLHDKGKSIQDERRRNFLHALI-NH2
# B14: E18,W22,K26-PTHrP(1-28)NH (peptide)
# peptide: AVSEHQLLHDKGKSIQDERRRWFLHKLI-NH2
# B15: E18,W22,A26-PTHrP(1-28)NH (peptide)
# peptide: AVSEHQLLHDKGKSIQDERRRWFLHALI-NH2
# B16: A18,26,L22-PTHrP(1-28)NH (peptide)
# peptide: AVSEHQLLHDKGKSIQDARRRLFLHALI-NH2
# B17: E18,S22,A26-PTHrP(1-28)NH (peptide)
# peptide: AVSEHQLLHDKGKSIQDERRRSFLHALI-NH2
# B18: A18,S22,K26-PTHrP(1-28)NH (peptide)
# peptide: AVSEHQLLHDKGKSIQDARRRSFLHKLI-NH2
# B19: A18,26,N22-PTHrP(1-28)NH (peptide)
# peptide: AVSEHQLLHDKGKSIQDARRRNFLHALI-NH2
# B20: A18,L22,K26-PTHrP(1-28)NH (peptide)
# peptide: AVSEHQLLHDKGKSIQDARRRLFLHKLI-NH2
# B21: E18,N22,K26-PTHrP(1-28)NH (peptide)
# peptide: AVSEHQLLHDKGKSIQDERRRNFLHKLI-NH2
# B22: A18,26,W22-PTHrP(1-28)NH (peptide)
# peptide: AVSEHQLLHDKGKSIQDARRRWFLHALI-NH2
# B23: [A1,3,23,Q10,R11]-PTH(1-34)OH (peptide)
# peptide: AVAEIQLMHQRGKHLNSMERVEALRKKLQDVHNF-OH
# notes: also called [A^1,A^3,A^23,Q^10,R^11]-PTH(1-34)OH; [A1,3,23,Q10,R11]-hPTH(1-34)
# B24: Mc-hPTH(1-34)OH (peptide)
# peptide: AVAEIQLMHQRAKWLNSMRRVEWLRKKLQDVHNF-OH
# B25: hPTH(1-28)NH2 (peptide)
# peptide: SVSEIQLMHNLGKHLNSMERVEWLRKKL-NH2
# B26: [Ala^1,12,Aib^3,Gln^10,homoarginine^11,Trp^14,Arg^19]human(h)PTH(1-28)NH2 (peptide)
# peptide: AV[Aib]EIQLMHQ[hArg]AKWLNSMRRVEWLRKKL-NH2
# modifications: N-terminus assumed
# SMILES: CC[C@H](C)[C@H](NC(=O)[C@H](CCC(=O)O)NC(=O)C(C)(C)NC(=O)[C@@H](NC(=O)[C@H](C)N)C(C)C)C(=O)N[C@@H](CCC(N)=O)C(=O)N[C@@H](CC(C)C)C(=O)N[C@@H](CCSC)C(=O)N[C@@H](Cc1c[nH]cn1)C(=O)N[C@@H](CCC(N)=O)C(=O)N[C@@H](CCCCNC(=N)N)C(=O)N[C@@H](C)C(=O)N[C@@H](CCCCN)C(=O)N[C@@H](Cc1c[nH]c2ccccc12)C(=O)N[C@@H](CC(C)C)C(=O)N[C@@H](CC(N)=O)C(=O)N[C@@H](CO)C(=O)N[C@@H](CCSC)C(=O)N[C@@H](CCCNC(=N)N)C(=O)N[C@@H](CCCNC(=N)N)C(=O)N[C@H](C(=O)N[C@@H](CCC(=O)O)C(=O)N[C@@H](Cc1c[nH]c2ccccc12)C(=O)N[C@@H](CC(C)C)C(=O)N[C@@H](CCCNC(=N)N)C(=O)N[C@@H](CCCCN)C(=O)N[C@@H](CCCCN)C(=O)N[C@@H](CC(C)C)C(N)=O)C(C)C
# B27: Trp^1-M-PTH(1-28) (peptide)
# peptide: WV[Aib]EIQLMHQ[hArg]AKWLNSMRRVEWLRKKL
# Molecular target: T1, human parathyroid hormone receptor …
# Assay: competition radioligand binding, human PIR R0
# Description: (§1) Binding Studies. Binding studies were performed using cell membranes as described (Dean et al., Mol Endocrinol 20(4):931-43 (2006)). […] Reactions contained a total membrane protein concentration of 20 to 100 μg/mL, and a total radioactivity concentration of approximately 150,000 cpm/ml. Unlabeled peptide ligands and/or GTPγS (Sigma-Aldrich Inc. St. Louis, Mo.) were added to the reactions as indicated. At the end of the reaction, bound and free radioligand were separated by vacuum filtration using a 96-well vacuum filter plate and vacuum filter apparatus (Multi-Screen system with Durapore HV, […] filters; Millipore Corp., Milford, Mass.); the air-dried filters were then detached from the plate and counted for gamma radioactivity using a gamma counter.
# (§2) To assess the capacities of various unlabeled peptide ligands to bind to the G protein-uncoupled and G protein-coupled PTHR conformations (R⁰ and RG, respectively), membranes were prepared from transiently transfected COS-7 cells and the following assay conditions.
row,Binder,IC50 [nM]
1,B1,144
2,B2,1740
3,B3,2060
4,B4,540

# Molecular target: T1, human parathyroid hormone receptor …
# Assay: competition radioligand binding, human PIR RG
# Description: as §1, §2
row,Binder,IC50 [nM]
1,B1,0.05
2,B2,0.1
3,B3,0.11
4,B4,0.1

# Molecular target: T1, human parathyroid hormone receptor …
# Assay: screen, binding to human PIR RG relative to parent PTHrP(1-28)NH; footnote not given
row,Binder,human PIR RG (% parent)
1,B5,167
2,B6,152
3,B7,125
4,B8,208
5,B9,115
6,B10,192
7,B11,172
8,B12,148
9,B13,140
10,B14,149
11,B15,116
12,B16,163
13,B17,132
14,B18,175
15,B19,161
16,B20,177
17,B21,147
18,B22,120

# Molecular target: T1, human parathyroid hormone receptor …
# Assay: cell-based or functional assay
Binder,"cAMP in HKRK-B7 cells, EC50 [nM]","cAMP in HKRK-B7 cells, Max [pm/well]"
B23,1.76,63.8
B24,3.25,65.5

# Molecular target: T1, human parathyroid hormone receptor …
# Assay: competition radioligand binding, hPTHR RG conformation
# Description: as §1, §2
row,Binder,IC50 [nM]
1,B1,0.05
2,B2,0.1

# Molecular target: T1, human parathyroid hormone receptor …
# Assay: competition radioligand binding, human PTH1 receptor R0
# Description: as §1, §2
row,Binder,IC50 [nM]
1,B23,197

# Molecular target: T1, human parathyroid hormone receptor …
# Assay: screen, binding to human PIR R0 relative to parent PTHrP(1-28)NH; footnote not given
row,Binder,human PIR R0 (% parent)
1,B5,160
2,B6,64.4
3,B7,52.5
4,B8,120
5,B9,136
6,B10,106
7,B11,139
8,B12,133
9,B13,53.7
10,B14,46.6
11,B15,18.8
12,B16,133
13,B17,31.9
14,B18,15
15,B19,136
16,B20,160
17,B21,84.4
18,B22,126

# Molecular target: T1, human parathyroid hormone receptor …
# Assay: ratio of R0 IC50 to RG IC50, hPTHR
row,Binder,R0/RG selectivity
1,B2,18300

# Molecular target: T2, rat parathyroid hormone receptor (PTHR)
# Assay: cell-based or functional assay
Binder,"acute cAMP in ROS17/2.8 cells, EC50 (FIG. 21A) [nM]","cAMP in ROS17/2.8 cells, EC50 [nM]","IP3 formation, fold less potent than M-PTH(1-28) [fold]"
B25,7.6,7.39,–
B26,0.33,0.37,–
B27,–,–,100

# Molecular target: T1, human parathyroid hormone receptor …
# Assay: competition radioligand binding, hPTHR R0 conformation
# Description: as §1, §2
row,Binder,IC50 [nM]
1,B1,144
2,B2,1740
